Source: paper PMC7291599, “Defining the Threshold IL-2 Signal Required for Induction of Selective Treg Cell Responses Using Engineered IL-2 Muteins” (Frontiers in Immunology, 2020)
Numbering of substitutions follows the chain as printed. In names and notes the source's numbering stands. One block for each molecule: values may come before it.

Assays:
[1] = molecular target: T1, recombinant human IL2RB-huFc (human) (UniProt P14784)
T1 sequence (chain, minimally biotinylated): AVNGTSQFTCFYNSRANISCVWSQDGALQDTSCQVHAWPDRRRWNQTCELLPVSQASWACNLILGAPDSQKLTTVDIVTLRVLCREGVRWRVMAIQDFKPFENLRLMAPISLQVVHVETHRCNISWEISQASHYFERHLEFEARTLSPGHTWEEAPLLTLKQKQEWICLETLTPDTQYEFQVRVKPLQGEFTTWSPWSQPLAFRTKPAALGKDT

[2] = molecular target: T2, Recombinant CD25 protein (IL-2R alpha chain) (human, UniProt P01589 22-240); experiment: SPR; CD25 amine-coupled (EDC/NHS) to a CM5 chip, about 90 RU, Biacore T100; IL-2 Fc fusions as analytes, 3-fold series from 500 to 6.2 nM in PBS + 0.05% Tween-20, 75 uL/min; steady state RU levels fitted globally to a 4-parameter logistic function to derive EC50; settings: both partners purified
T2 construct: IL-2 receptor alpha chain (CD25, IL2RA), recombinant, R&D Systems cat #223-2A/CF; source: bought: R&D Systems (cat #223-2A/CF)
T2 sequence (looked up): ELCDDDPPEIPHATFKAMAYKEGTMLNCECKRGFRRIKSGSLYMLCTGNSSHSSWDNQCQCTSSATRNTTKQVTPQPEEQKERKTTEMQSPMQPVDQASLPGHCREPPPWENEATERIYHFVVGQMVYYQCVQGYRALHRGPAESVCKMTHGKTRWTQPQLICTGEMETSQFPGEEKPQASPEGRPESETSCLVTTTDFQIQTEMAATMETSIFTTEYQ

Molecule: IL-2 mutein D20A (Fc fusion) (from UniProt P60568 21-153)
pSTAT5 MFI EC50 in CD25hi Foxp3+ Treg cells, human whole blood assay (AVG EC50, n = 3 donors) [1]: 1.21 nM

Molecule: IL-2 mutein D20G (Fc fusion) (from UniProt P60568 21-153)
pSTAT5 MFI EC50 in CD25hi Foxp3+ Treg cells, human whole blood assay (AVG EC50, n = 3 donors) [1]: 6.24 nM

Molecule: IL-2 mutein D20W (Fc fusion) (from UniProt P60568 21-153)
pSTAT5 MFI EC50 in CD25hi Foxp3+ Treg cells, human whole blood assay (AVG EC50, n = 3 donors) [1]: 20.9 nM

Molecule: IL-2 mutein H16E M104L (Fc fusion) (from UniProt P60568 21-153)
pSTAT5 MFI EC50 in CD25hi Foxp3+ Treg cells, human whole blood assay (AVG EC50, n = 3 donors) [1]: 62 pM

Molecule: IL-2 mutein V91S (Fc fusion) (from UniProt P60568 21-153)
pSTAT5 MFI EC50 in CD25hi Foxp3+ Treg cells, human whole blood assay (AVG EC50, n = 3 donors) [1]: 89 pM

B1: IL-2 mutein D20A H16R E61Q (Fc fusion) (Fc fusion, human, UniProt P60568 21-153, looked up)
chain: APTSSSTKKTQLQLERLLLALQMILNGINNYKNPKLTRMLTFKFYMPKKATELKHLQCLEQELKPLEEVLNLAQSKNFHLRPRDLISNINVIVLELKGSETTFMCEYADETATIVEFLNRWITFCQSIISTLT
notes: human interleukin-2 (IL-2), fused to the Fc of human IgG1 (N297G); H16 is H36 in P60568); Homodimeric Fc fusion, bivalent for IL-2; source: CHO K1, stably integrated, purified from culture media (MabSelect SuRe, desalting, Superdex 200 SEC)
EC50 [2]: 157 nM

B2: IL-2 mutein V91K D20A M104V (Fc fusion) (Fc fusion, human, UniProt P60568 21-153, looked up)
chain: B1 chain with R16H, Q61E, V91K, M104V
notes: as for B1
EC50 [2]: 6 nM

More lines, now with the values ahead:

pSTAT5 MFI EC50 in CD25hi Foxp3+ Treg cells, human whole blood assay (AVG EC50, n = 3 donors) [1]: 20.7 nM
Molecule: IL-2 mutein D20A H16R E61Q (Fc fusion) (from UniProt P60568 21-153)

pSTAT5 MFI EC50 in CD25hi Foxp3+ Treg cells, human whole blood assay (AVG EC50, n = 3 donors) [1]: 1.67 nM
Molecule: IL-2 mutein D20A M104T (Fc fusion) (from UniProt P60568 21-153)

pSTAT5 MFI EC50 in CD25hi Foxp3+ Treg cells, human whole blood assay (AVG EC50, n = 3 donors) [1]: 67 pM
Molecule: IL-2 mutein H16E (Fc fusion) (from UniProt P60568 21-153)

pSTAT5 MFI EC50 in CD25hi Foxp3+ Treg cells, human whole blood assay (AVG EC50, n = 3 donors) [1]: 2.34 nM
Molecule: IL-2 mutein H16E E61Q (Fc fusion) (from UniProt P60568 21-153)

pSTAT5 MFI EC50 in CD25hi Foxp3+ Treg cells, human whole blood assay (AVG EC50, n = 3 donors) [1]: 0.418 nM
Molecule: IL-2 mutein N88D (Fc fusion) (from UniProt P60568 21-153)

pSTAT5 MFI EC50 in CD25hi Foxp3+ Treg cells, human whole blood assay (AVG EC50, n = 3 donors) [1]: 23.3 nM
Molecule: IL-2 mutein N88K (Fc fusion) (from UniProt P60568 21-153)

pSTAT5 MFI EC50 in CD25hi Foxp3+ Treg cells, human whole blood assay (AVG EC50, n = 3 donors) [1]: 4.76 nM
Molecule: IL-2 mutein V91K D20A M104V (Fc fusion) (from UniProt P60568 21-153)
